The record followed here is patent publication CN113999303A (BEIJING GENESEE BIOLOGICAL TECH CO LTD, dated 2022).

In this assay the target is T1, 新型冠状病毒核衣壳蛋白 (SARS-COV-2, UniProt P0DTC9 1-419).
T1 construct: also called SARS-COV-2 nucleocapsid protein; N protein
Description: ELISA screening of mouse hybridomas for antigen-specific antibodies.

B1: 新型冠状病毒核衣壳抗体 mAb#9 (antibody, V domains shown)
VH: EVQLVESGGGLVKPGGSLKLSCAASGITFSDYYMYWVRQTPEKRLEWVATISDGGSYTYYPDSVKGRFTISRDNAKNNLYLQMSSLKSEDTAMYYCVRDKSMGFGAWFAYWGQGTLVTVSA
VL: EIVLTQSPTTMAASPGEKITITCSASSSISSNYLHWYQQRPGFSPKLLIYRTSNLASGVPARFSGSGSGTSYSLTIGTMEAEDVATYYCQQGHSIPYTFGGGTKLEIK
notes: also called 第二新型冠状病毒核衣壳蛋白抗体
Turning to B1, the binding result is recorded as “binds”.
